{"source": "patent US10391180B2", "about": "“Self-assembling complex for targeting chemical agents to cells” (CEDARS-SINAI MEDICAL CENTER, priority 2007, dated 2019)", "key": {"MDA-MB-231 (HER2−) cells": {"test_system": "MDA-MB-231 (HER2−) cells", "test": "Targeted toxicity, MTT assay, separate dishes", "type": "cell-based", "conditions": "HerDox/Dox 0.5 uM Dox; HerPBK10 0.1 uM; day 3", "protocol": "(§1) FIG. 7 illustrates targeted toxicity. Each cell line was exposed to HerDox (0.5 uM Dox cone), Dox alone (0.5 uM), or HerPBK10 alone for 4 h at 37° C. in complete (i.e. serum-containing) media, followed by aspiration to remove free conjugate, and addition of fresh medium while cells are grown continuously. Cell titer was determined by metabolic (i.e. MTT) assay. FIG. 7 upper panel illustrates the effect of HerDox on MDA-MB-231 (HER2−) and MDA-MB-435 (HER2+) cell survival. Relative surviving cell numbers are represented as a % of corresponding untreated cells. FIG. 7 lower panel illustrates comparison of HerDox, Dox alone, or HerPBK10 alone on HER2− and HER2+ cell survival. Relative survival (as % of untreated cells) is shown for Day 3 of treatment.\n(§2) The inventors compared the effect of HerDox or Dox alone at equivalent dosages (0.5 uM with respect to Dox concentration) on HER2+ and HER2− breast cancer cells in separate dishes. By three days, HerDox reduced HER2+ cell numbers by over 75% whereas HER2− cell survival was unaffected (FIG. 7). […] These findings emphasize the importance of targeting by showing that the untargeted drug affects nontarget (i.e. HER2−) cells. Importantly, the protein carrier, HerPBK10, alone at the equivalent concentration of protein in HerDox (0.1 uM) had no effect on either cell line (FIG. 7), including a lack of proliferation induction. To test receptor targeting, the inventors used free heregulin ligand (Her or eHRG) as a competitive inhibitor. […] As a final in vitro challenge, the inventors tested whether HerDox induces toxicity specifically to HER2+ cells in a mixed culture of HER2+ and HER2− breast cancer cells. To do this, the inventors produced a HER2− cell line tagged with green fluorescent protein (GFP) for cell identification in the mixed culture (FIG. 9 (A)). […] Altogether, these findings indicate that HerDox has the capacity to preferentially target toxicity to HER2+ cells. […] Moreover, the preferential cell killing of HER2+ cells in a mixed culture of HER2+ and HER2− cells implies that after death and lysis of the target cells, the Dox released into those cells is incapable of continuing to induce toxicity to HER2− cells. To further confirm the stability of HerDox in cell culture, HerDox was recovered from culture media in separate experiments at indicated time points and electrophoresed on an agarose gel, which was then illuminated by UV to detect Dox and stained with Coomassie blue to detect HerPBK10 protein (FIG. 9 (C)). […] Co-migration of HerPBK10 bands further verified that the conjugates remained intact in the cell media."}, "MDA-MB-435 (HER2+) cells": {"test_system": "MDA-MB-435 (HER2+) cells", "test": "Targeted toxicity, MTT assay, separate dishes", "type": "cell-based", "conditions": "0.5 uM Dox conc, 4 h exposure, by three days", "protocol": "as §1, §2"}, "[1]": {"test_system": "heregulin receptors on MDA-MB-435 (HER2+) cells", "test": "Receptor specificity, competition with free heregulin ligand (eHRG)", "type": "cell-based", "conditions": "eHRG 10× molar excess, HerDox 0.5 uM", "protocol": "FIG. 8 illustrates receptor specificity. MDA-MB-435 (HER2+) cells were incubated with free ligand (eHRG) at 10× molar excess of HerDox for 1 h at 4° C. Media was aspirated to remove free eHRG and fresh media containing HerDox (0.5 uM) was added to cells. Cell survival was measured by MTT assay and represented as a % of relative untreated cell numbers.\nThe inventors compared the effect of HerDox or Dox alone at equivalent dosages (0.5 uM with respect to Dox concentration) on HER2+ and HER2− breast cancer cells in separate dishes. By three days, HerDox reduced HER2+ cell numbers by over 75% whereas HER2− cell survival was unaffected (FIG. 7). […] These findings emphasize the importance of targeting by showing that the untargeted drug affects nontarget (i.e. HER2−) cells. Importantly, the protein carrier, HerPBK10, alone at the equivalent concentration of protein in HerDox (0.1 uM) had no effect on either cell line (FIG. 7), including a lack of proliferation induction. To test receptor targeting, the inventors used free heregulin ligand (Her or eHRG) as a competitive inhibitor. […] As a final in vitro challenge, the inventors tested whether HerDox induces toxicity specifically to HER2+ cells in a mixed culture of HER2+ and HER2− breast cancer cells. […]"}, "[2]": {"test_system": "GFP(+) MDA-MB-231 (HER2−) cells", "test": "Targeting in a mixed cell culture", "type": "cell-based", "conditions": "HerDox containing 0.5 uM Dox, day 2", "protocol": "(§3) FIGS. 9 (A)-(C) illustrates targeting in a mixed cell culture. As illustrated in FIG. 10 (A), equal numbers of MDA-MB-435 and GFP(+) MDA-MB-231 cells were treated with Dox alone (0.5 uM), Her-Dox (containing 0.5 uM Dox), or HerPBK10 (1.2 ug/well, equivalent to HerPBK10 in HerDox). Wells were assayed for GFP fluorescence (to determine relative MDA-MB-231 number) and crystal violet staining (to determine total cell number). As illustrated in FIG. 9 (B), cell survival was determined by calculating the relative doubling time (DT) of experimental (exp) cells normalized by control (con) cells based on the crystal violet stains (total cells) and GFP fluorescence (MDA-MB-231 cells). The DT of MDA-MB-435 was determined by subtracting the DT of MDA-MB-231 from the total cell DT. Relative survival is shown for Day 2 of treatment. As illustrated in FIG. 9 (C), there is stability in cell culture. Aliquots of culture media containing HerDox (after incubation for the indicated times at 37° C.) were electrophoresed on a 2% agarose gel. HerDox incubated at 37° C. in HEPES-buffered saline, lacking serum, was processed in parallel. Dox fluorescence was visualized by UV excitation. Free Dox (Dox alone) is not retained in the gel whereas Dox incorporated in HerDox is. […]"}, "[3]": {"test_system": "MDA-MB-435 (non-GFP, HER2+) cells", "test": "Targeting in a mixed cell culture", "type": "cell-based", "conditions": "HerDox containing 0.5 uM Dox, day 2", "protocol": "as §3"}, "[4]": {"test_system": "bilateral flank tumors (HER2+)", "test": "In vivo tumor toxicity, tumor growth", "set-up": "species or system mice", "conditions": "daily tail vein injections, 0.004 mg/kg Dox conc, 7 consecutive days", "protocol": "FIGS. 12 (A)-(D) illustrates comparison of HerDox and Dox on (A) tumor growth, (B) animal weight, (C) cardiac tissue, and (D) cardiac function.\nTo assess in vivo tumor toxicity, mice bearing 3-4 week bilateral flank tumors began receiving daily tail vein injections of Dox or HerDox (0.004 mg/kg with respect to Dox conc), HerPBK10 alone (at equivalent protein concentration to HerDox) or saline for 7 consecutive days."}}}
{"molecule": "HerDox: non-covalent complex of HerPBK10, a small double-stranded nucleic acid and intercalated Dox (conjugate, left off: small tags and cut ends, non-covalent complex of HerPBK10, a small double-stranded nucleic acid and intercalated Dox) LPPRLKEMKSQESAAGSKLVLRCETSSEYSSLRFKWFKNGNELNRKNKPQNIKIQKKPGKSELRINKASLADSGEYMCKVISKLGNDSASANITIVESNEIITGMPASTEGAYVSSESPIRISVSTEGANTSSSTSTSTTGTSHLVKCAEKEKTFCVNGGECFMVKDLSNPSRYLCKCQPGFTGARCTENVPMKVQNQEKAEELYMRRAAMYEEGPPPSYESVVSAAPVAAALGSPFDAPLDPPFVPPRYLRPTGGRNSIRYSELAPLFDTTRVYLVDNKSTDVASLNYQNDHSNFLTTVIQNNDYSPGEASTQTINLDDRSHWGGDLKTILHTNMPNVNEFMFTNKFKARVMVSRLPTKDNQVELKYEWVEFTLPEGNYSETMTIDLMNNAIVEHYLKVGRQNGVLESDIGVKFDTRNFRLGFDPVTGLVMPGVYTNEAFHPDIILLPGCGVDFTHSRLSNLLGIRKRQPFQEGFRITYDDLEGGNIPALLDVDAYQASLKDDTEQGGGGAGGSNSSGSGAEENSNAAAAAMQPVEDMNDHAIRGDTFATRAEEKRAEAEAAAEAAAPAAQPEVEKPQKKPVIKPLTEDSKKRSYNLISNDSTFTQYRSWYLAYNYGDPQTGIRSWTLLCTPDVTCGSEQVYWSLPDMMQDPVTFRSTRQISNFPVVGAELLPVHSKSFYNDQAVYSQLIRQFTSLTHVFNRFPENQILARPPAPTITTVSENVPALTDHGTLPLRNSIGGVQRVTITDARRRTCPYVYKALGIVSPRVLSSRTFKKKKKKKKKK", "values": [{"measurement": "effect on HER2− cell survival", "setting": "MDA-MB-231 (HER2−) cells", "result": "unaffected"}, {"measurement": "reduction of HER2+ cell numbers", "setting": "MDA-MB-435 (HER2+) cells", "result": "over 75%"}, {"measurement": "cell killing by HerDox in presence of free heregulin ligand", "setting": "[1]", "result": "completely inhibited"}, {"measurement": "GFP (HER2−) cell growth in mixed culture", "setting": "[2]", "result": "not altered"}, {"measurement": "non-GFP (HER2+) cell proliferation in mixed culture", "setting": "[3]", "result": "nearly completely reduced"}, {"measurement": "tumor growth", "setting": "[4]", "result": "essentially prevented tumor growth"}]}
